Measured values as given in patent US12649778.

Target: Peptide 1593 (…) (Mycobacterium tuberculosis)
Experiment: SPR (Biacore), IgG amine-coupled, peptide as analyte

B1: 65D3 mutant IgG variant 2 (S55W-VH + S57T-VL) (antibody)
heavy: QSLEESGGRLVTPGGSLTLTCTVSGFSLSTHDISWVRQAPGKGLEWIGVIARRGWTYYASWAKGRFTISKTSTTVDLKITSPTIEDTATYFCAREEFDFWGQGTLVTVSSGQPKAPSVFPLAPCCGDTPSSTVTLGCLVKGYLPEPVTVTWNSGTLTNGVRTFPSVRQSSGLYSLSSVVSVTSSSQPVTCNVAHPATNTKVDKTVAPSTCSKPTCPPPELLGGPSVFIFPPKPKDTLMISRTPEVTCVVVDVSQDDPEVQFTWYINNEQVRTARPPLREQQFNSTIRVVSTLPIAHQDWLRGKEFKCKVHNKALPAPIEKTISKARGQPLEPKVYTMGPPREELSSRSVSLTCMINGFYPSDISVEWEKNGKAEDNYKTTPAVLDSDGSYFLYSKLSVPTSEWQRGDVFTCSVMHEALHNHYTQKSISRSPGK
light: AVLTQTASPVSAAVGGTVTISCQSSQSVYNNKELSWFQQKPGQPPKLLISYASTLATGVPSRFKGSGSGTQFTLTISDLECDDAATYYCLGGYASTIDMWAFGGGTEVVVKGDPVAPTVLIFPPAADQVATGTVTIVCVANKYFPDVTVTWEVDGTTQTTGIENSKTPQNSADCTYNLSSTLTLTSTQYNSHKEYTCKVTQGTTSVVQSFNRGDC
- Kd: 3.27 nM
- koff: 0.000393 s⁻¹
- kon: 120000 M⁻¹ s⁻¹
